Measured values taken from paper PMC4615894.

Molecular target: CENP-W (Xenopus (endogenous in egg extract))
Assay: co-IP

percent co-depleted: 80%
Substance: CENP-C (natural protein)
